According to IntAct's records for PubMed 20051244:

B1: Octaprenyl diphosphate synthase (Escherichia coli (strain K12)), P0AD57 (parent)
chain: MNLEKINELTAQDMAGVNAAILEQLNSDVQLINQLGYYIVSGGGKRIRPMIAVLAARAVGYEGNAHVTIAALIEFIHTATLLHDDVVDESDMRRGKATANAAFGNAASVLVGDFIYTRAFQMMTSLGSLKVLEVMSEAVNVIAEGEVLQLMNVNDPDITEENYMRVIYSKTARLFEAAAQCSGILAGCTPEEEKGLQDYGRYLGTAFQLIDDLLDYNADGEQLGKNVGDDLNEGKPTLPLLHAMHHGTPEQAQMIRTAIEQGNGRHLLEPVLEAMNACGSLEWTRQRAEEEADKAIAALQVLPDTPWREALIGLAHIAVQRDR
partner: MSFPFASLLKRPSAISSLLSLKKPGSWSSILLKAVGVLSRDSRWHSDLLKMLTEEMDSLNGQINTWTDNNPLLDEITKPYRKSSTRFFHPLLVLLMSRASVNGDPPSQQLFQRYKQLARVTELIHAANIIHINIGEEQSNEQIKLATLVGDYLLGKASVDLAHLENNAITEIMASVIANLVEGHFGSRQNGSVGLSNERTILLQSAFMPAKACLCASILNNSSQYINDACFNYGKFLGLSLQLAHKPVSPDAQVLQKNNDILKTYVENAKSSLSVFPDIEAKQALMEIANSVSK
B2: Octaprenyl diphosphate synthase (Escherichia coli (strain K12)), P0AD57 (parent)
chain: B1 chain
partner: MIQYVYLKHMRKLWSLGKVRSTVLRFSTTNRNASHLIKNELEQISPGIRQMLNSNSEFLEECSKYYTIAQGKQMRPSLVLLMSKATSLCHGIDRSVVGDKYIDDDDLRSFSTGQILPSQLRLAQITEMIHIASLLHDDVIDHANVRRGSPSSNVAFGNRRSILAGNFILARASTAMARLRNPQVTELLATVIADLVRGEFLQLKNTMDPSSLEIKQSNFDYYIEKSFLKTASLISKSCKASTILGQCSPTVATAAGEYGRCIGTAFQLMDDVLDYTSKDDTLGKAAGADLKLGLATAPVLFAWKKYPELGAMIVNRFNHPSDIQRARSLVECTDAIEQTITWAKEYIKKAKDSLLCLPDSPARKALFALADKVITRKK

Variants of: B1
Conditions: with dlp1_schpo dlp1, O13851

| effect of a mutation on the interaction | Variant |
| --- | --- |
| decreasing interaction | MNLEKINELTAQDMAGVNAAILEQLNSDVQLINQLGYYIVSGGGKRIRPMIAVLAARAVGYEGNAHVTIAALIEFIHTATLLHDDVVDESDMRRGKATANAAFGNAASVLVGDFIYTRAFQMMTSLGSLKVLEVMSEAVNVIAEGEVLQLMNVNDPDITEENYMRVIYSKTARLFEAAAQCSGILAGCTPEEEKGLQDYGRYLGTAFQLIDDLLDYNADGEQLGKNVGDDLNEGKPTLPLLHAMHHGTPEQAQMIRTAIEQGNGRHLLEPVLEAMNACGSLEWTRQRAEEEADKAIAALQVLPDTPWREALIGLAHIAVQADR [R321A] |

Variants of: B2
Conditions: with dps1_schpo dps1, O43091

| effect of a mutation on the interaction | Variant |
| --- | --- |
| increasing interaction | MNLEKINELTAQDMAGVNAAILEQLNSDVQLINQLGYYIVSGGGKRIRPMIAVLAARAVGYEGNAHVTIAALIEFIHTATLLHDDVVDESDMRRGKATANAAFGNAASVLVGDFIYTRAFQMMTSLGSLKVLEVMSEAVNVIAEGEVLQLMNVNDPDITEENYMRVIYSKTARLFEAAAQCSGILAGCTPEEEKGLQDYGRYLGTAFQLIDDLLDYNADGEQLGKNVGDDLNEGKPTLPLLHAMHHGTPEQAQMIRTAIEQGNGRHLLEPVLEAMNACGSLEWTRQRAEEEADKAIAALQVLPDTPWREALIGLAHIAVQADR [R321A] |
